According to patent US20220251546:

Molecular target: T1, IFIT5 (rhIFIT5) (Homo sapiens) (UniProt Q13325)
T1 sequence: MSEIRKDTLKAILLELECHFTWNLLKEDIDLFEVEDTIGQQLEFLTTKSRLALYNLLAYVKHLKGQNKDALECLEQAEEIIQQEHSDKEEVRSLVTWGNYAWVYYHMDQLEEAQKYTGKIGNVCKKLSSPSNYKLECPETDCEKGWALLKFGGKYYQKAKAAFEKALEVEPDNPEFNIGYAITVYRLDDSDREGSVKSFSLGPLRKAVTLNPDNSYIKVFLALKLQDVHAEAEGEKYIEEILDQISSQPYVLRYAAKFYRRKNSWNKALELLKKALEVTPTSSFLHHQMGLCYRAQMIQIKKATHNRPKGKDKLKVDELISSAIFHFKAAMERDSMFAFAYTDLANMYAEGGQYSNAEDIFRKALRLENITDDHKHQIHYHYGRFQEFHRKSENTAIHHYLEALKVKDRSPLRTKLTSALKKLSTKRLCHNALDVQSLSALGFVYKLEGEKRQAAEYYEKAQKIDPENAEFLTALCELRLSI
Assay: pulldown
Details: 5'-triphosphate; approx. 10-fold enrichment vs 16S rRNA, over 20-fold vs 23S rRNA by RT-qPCR

In the case of Listeria Lmo2210 mRNA and LhrC sRNA, the binding signal is reported as 10 fold.
